Test results: patent publication US20230203138A1 (TRUSTEES OF COLUMBIA UNIVERSITY IN THE CITY OF NEW YORK, published 2023)

Tests used:
SARS-CoV Spike trimer = SARS-CoV Spike trimer (SARS-CoV, UniProt P59594 14-1190); assay: SPR (FIG. 37D)
[1] = biological target: SARS-CoV-2 receptor binding domain (RBD) (SARS-CoV-2, UniProt P0DTC2 319-591); assay: ELISA (FIG. 10)

B1: monoclonal antibody 2-4 (antibody, V domains shown)
VH: QVQLVQSGAEVKKPGASVKVSCKASGYTFTGYYMHWVRQAPGQGLEWMGWINPNSGGTNYTQMFQGRVTMTRDTSISTAYMEVSRLRSDDTAVYYCARDRSWAVVYYYMDVWGKGTTVTVSS
VL: QSALTQPPSASGSPGQSVTISCTGTSSDVGGYNYVSWYQQHPGKAPKLMIYEVSKRPSGVPDRFSGSKSGNTASLTVSGLQAEDEADYYCSSYAGSNNLVFGGGTKLTVL
SARS-CoV Spike trimer
  binding result: no binding

B2: monoclonal antibody 2-7 (antibody, V domains shown)
VH: QITLKESGPTLVKPTQTLTLTCTFSGFSLSTSGVGVGWIRQPPGKALEWLALIYWDDDKRYSPSLKSRLTITKDTSKNQVVLTMTNMDPVDTATYYCAHHKIERIFDYWGQGTLVTVSS
VL: QSALAQPASVSGSPGQSITISCTGTSSDVGAYNYVSWYQQHPGKAPKLMIYDVSKRPSGVSNRFSGSKSGNTASLTISGLQAEDEADYYCSSYTTSSTVFGGGTKLTVL
[1]
  binding result: binds

B3: monoclonal antibody 2-30 (antibody, V domains shown)
VH: QVQLVESGGGVVQPGRSLRLSCAASGFTFSSYTMHWVRQAPGKGLEWVAAISYDGNNKYYADSVKGRFTISRDNSKNTLYLQMNSLRAEDTAVYYCARSILYGGGMDVWGQGTTVTVSS
VL: DIQLTQSPSSLSASVGDRVTITCRASQGISSYLAWYQQKPGQAPKLLIYAASTLQSGVPSRFSGSGSGTDFTLTISSLQPEDFATYYCQQLNSYPLTFGGGTKVEIK
[1]
  binding result: binds

B4: monoclonal antibody 1-20 (antibody, V domains shown)
VH: EVQLVESGGGLIQPGGSLRLSCAASGLTVSSNYMSWVRQAPGKGLEWVSVIYSGGSTFYADSVKGRFTISRDNSKNTLYLQMNSLRAEDTAVYYCARDLFYYGMDVWGQGTTVTVSS
VL: DIQLTQSPSFLSASVGDRVTITCRASQGISSYLAWYQQKPGKAPKLLIYAASTLQSGVPSRFSGSGSGTEFTLTISSLQPEDFATYYCQQLNSYPCFGPGTKVDIK
[1]
  binding result: binds

B5: monoclonal antibody 4-20 (antibody, V domains shown)
VH: QVQLLQSGAEVKKPGASVKVSCKASGYSFTSYYMHWVRQAPGQGLEWMGIINPSGGGTTYAQKFQGRVTMTRDTSTSTVYMELSSLRSEDTAVYYCARPGGGSYQEFDYWGQGTLVTVSS
VL: DIQMTQSPSSLSASVGDRVTITCRASQSISSYLNWYQQKPGKAPKLLISAASSLQSGVPSRFSGSGSGTDFTLTISSLQPEDFATYYCQQSYNTLQVTFGGGTKVEIK
[1]
  binding result: binds
